Laboratory results as given in patent US20130011427A1 (priority 2009, published 2013).

What was measured:
[1] = test system: HLA-A24/huCD8α (HLA-A*2402) Tg mice, CD4-depleted splenocytes; assay type: cell-based, mouse
[2] = test system: HLA-B7 (HLA-B*0702) Tg mice, CD4-depleted splenocytes; assay type: cell-based, mouse
[3] = test system: HLA-DR4/huCD4 (DRB1*0401) Tg mice, CD8-depleted splenocytes; assay type: cell-based, mouse
[4] = test system: HLA-DR2 (DRB1*1501) Tg mice, CD8-depleted splenocytes; assay type: cell-based, mouse
[5] = test system: HLA-A2.1 (HLA-A*0201) Tg mice, CD4-depleted splenocytes; assay type: cell-based, mouse
[6] = target: HLA-A24 (HLA-A*2402 with human β2-microglobulin) (human); test: cell-based or functional assay
[7] = target: HLA-DR4 (HLA-DRA*0101 / HLA-DRB1*0401) (human); test: cell-based or functional assay
[8] = target: HLA-DR2 (chimeric HLA-DRA1*0101/DRB1*1501 with I-E domains) (human; murine) (UniProt Q8BHN5); test: cell-based or functional assay
[9] = target: HLA-B7 (chimeric HLA-B*0702 / H-2K^d heavy chain) (human; murine) (UniProt P01902); test: cell-based or functional assay
[10] = target: HLA-DR3 (HLA-DRA*0101 / HLA-DRB1*0301) (human); test: cell-based or functional assay

Chain of UniProt Q8BHN5 (Q8BHN5 whole entry, stated change not applied): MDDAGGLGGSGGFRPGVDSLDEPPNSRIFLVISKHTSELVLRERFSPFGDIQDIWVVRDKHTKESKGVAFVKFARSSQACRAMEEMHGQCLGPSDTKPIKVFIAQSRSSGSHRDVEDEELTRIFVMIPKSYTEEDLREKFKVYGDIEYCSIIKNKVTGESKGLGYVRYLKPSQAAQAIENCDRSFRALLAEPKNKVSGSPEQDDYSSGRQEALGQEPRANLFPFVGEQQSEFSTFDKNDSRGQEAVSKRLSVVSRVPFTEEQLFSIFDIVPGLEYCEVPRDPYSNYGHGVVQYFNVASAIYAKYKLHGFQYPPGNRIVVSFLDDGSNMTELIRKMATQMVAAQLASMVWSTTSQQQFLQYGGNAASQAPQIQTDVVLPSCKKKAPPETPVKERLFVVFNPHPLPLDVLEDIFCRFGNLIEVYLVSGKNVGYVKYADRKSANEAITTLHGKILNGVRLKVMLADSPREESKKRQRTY
Chain of UniProt P01902 (P01902 whole entry, change not shown): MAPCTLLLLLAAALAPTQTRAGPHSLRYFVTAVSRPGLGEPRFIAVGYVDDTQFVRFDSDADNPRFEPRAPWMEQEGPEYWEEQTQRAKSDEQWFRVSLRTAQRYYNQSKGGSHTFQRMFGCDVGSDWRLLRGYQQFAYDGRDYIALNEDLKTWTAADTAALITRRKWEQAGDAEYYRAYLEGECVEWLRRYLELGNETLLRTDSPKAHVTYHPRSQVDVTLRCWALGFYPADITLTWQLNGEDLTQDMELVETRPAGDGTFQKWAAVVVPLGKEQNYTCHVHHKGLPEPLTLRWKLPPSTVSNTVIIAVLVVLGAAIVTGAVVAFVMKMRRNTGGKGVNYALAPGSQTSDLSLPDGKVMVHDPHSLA

Row | IFN-γ ELISpot (SFC/10^6) [6] [SFC/10^6] | IFN-γ ELISpot (SFC/10^6) [7] [SFC/10^6] | Substance | T cell activation of HLA transgenic mice (SFC/10^6) IFN-γ ELISpot, B7 [2] [SFC/10^6] | further results
1 |  |  | ISAYTPWAILPSVVGFWI [NS2b 107-124] | 81 ± 8 | T cell activation of HLA transgenic mice (SFC/10^6) IFN-γ ELISpot, A24 [1]: 50 ± 11 SFC/10^6; T cell activation of HLA transgenic mice (SFC/10^6) IFN-γ ELISpot, DR4 [3]: 163 ± 4 SFC/10^6
2 |  |  | LRNPGYALVAAVIGWML [prM 129-145] | 31 ± 7 | T cell activation of HLA transgenic mice (SFC/10^6) IFN-γ ELISpot, A24 [1]: 71 ± 38 SFC/10^6; T cell activation of HLA transgenic mice (SFC/10^6) IFN-γ ELISpot, DR2 [4]: 62 ± 11 SFC/10^6
3 |  |  | PAAPSYTLKLGEYGEVTV [E 171-188] | 996 ± 100 | T cell activation of HLA transgenic mice (SFC/10^6) IFN-γ ELISpot, A2 [5]: 279 ± 217 SFC/10^6
4 |  |  | SAEVEEHRTIRVLEMV [NS5 153-168] | 112 ± 72 | T cell activation of HLA transgenic mice (SFC/10^6) IFN-γ ELISpot, A2 [5]: 332 ± 52 SFC/10^6; T cell activation of HLA transgenic mice (SFC/10^6) IFN-γ ELISpot, DR2 [4]: 250 ± 24 SFC/10^6
5 |  |  | TFLVHREWFMDLNLPW [E 210-225] | 519 ± 477 | T cell activation of HLA transgenic mice (SFC/10^6) IFN-γ ELISpot, A2 [5]: 323 ± 175 SFC/10^6
6 | 137 | 53 | WNV E 195-212 peptide |  | 
7 | 243 | 74 | WNV NS2a 45-61 peptide |  | IFN-γ ELISpot (SFC/10^6) [8]: 307 SFC/10^6
8 | 50 | 163 | WNV NS2b 107-124 peptide |  | IFN-γ ELISpot (SFC/10^6) [9]: 81 SFC/10^6
9 | 65 | 63 | WNV NS4a 86-103 peptide |  | 
10 | 79 | 33 | WNV NS5 863-879 peptide |  | IFN-γ ELISpot (SFC/10^6) [10]: 121 SFC/10^6
11 | 71 |  | WNV prM 129-145 peptide |  | IFN-γ ELISpot (SFC/10^6) [8]: 62 SFC/10^6; IFN-γ ELISpot (SFC/10^6) [9]: 31 SFC/10^6
12 |  |  | YAQMWLLLYFHRRDLRLM [NS5 763-780] | 36 ± 16 | T cell activation of HLA transgenic mice (SFC/10^6) IFN-γ ELISpot, DR4 [3]: 91 ± 32 SFC/10^6

Row | Substance | IFN-γ ELISpot (SFC/10^6) [6] [SFC/10^6] | IFN-γ ELISpot (SFC/10^6) [7] [SFC/10^6] | T cell activation of HLA transgenic mice (SFC/10^6) IFN-γ ELISpot, B7 [2] [SFC/10^6] | further results
13 | WNV NS5 470-486 peptide | 183 |  |  | 
